This note sets out measurements from PMC1180672.

In series [1] the target is scRPA70A (DNA-binding domain A of RPA70) (Saccharomyces cerevisiae, UniProt P22336 181-294). Briefly: NMR chemical shift perturbation.
Series [2] has as its target hRPA70A (DNA-binding domain A of RPA70) (human, UniProt P27694 181-290). Put plainly: NMR chemical shift perturbation.

hRPA70A (DNA-binding domain A of RPA70), sequence (P27694 181-290): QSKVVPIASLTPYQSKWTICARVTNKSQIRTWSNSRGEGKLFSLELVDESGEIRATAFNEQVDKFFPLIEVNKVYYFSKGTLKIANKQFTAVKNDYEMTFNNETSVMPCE
scRPA70A (DNA-binding domain A of RPA70), sequence (P22336 181-294): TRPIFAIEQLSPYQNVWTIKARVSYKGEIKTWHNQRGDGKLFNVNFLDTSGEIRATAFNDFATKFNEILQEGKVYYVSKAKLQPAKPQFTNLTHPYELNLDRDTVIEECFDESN

B1: TT-10 (ssDNA)
DNA: GCGATTGCG
For B1, the binding result in series [1] and in series [2] was “binds” in each case.
